# In PMC7367873, “Dissecting the sequence determinants for dephosphorylation by the catalytic subunits of phosphatases PP1 and PP2A” (Nature Communications, 2020):
# B1: CLASP2 (protein, UniProt O75122 1-1294, looked up)
# CLIP-associating protein 2: MAMGDDKSFDDEESVDGNRPSSAASAFKVPAPKTSGNPANSARKPGSAGGPKVGGASKEGGAGAVDEDDFIKAFTDVPSIQIYSSRELEETLNKIREILSDDKHDWDQRANALKKIRSLLVAGAAQYDCFFQHLRLLDGALKLSAKDLRSQVVREACITVAHLSTVLGNKFDHGAEAIVPTLFNLVPNSAKVMATSGCAAIRFIIRHTHVPRLIPLITSNCTSKSVPVRRRSFEFLDLLLQEWQTHSLERHAAVLVETIKKGIHDADAEARVEARKTYMGLRNHFPGEAETLYNSLEPSYQKSLQTYLKSSGSVASLPQSDRSSSSSQESLNRPFSSKWSTANPSTVAGRVSAGSSKASSLPGSLQRSRSDIDVNAAAGAKAHHAAGQSVRSGRLGAGALNAGSYASLEDTSDKLDGTASEDGRVRAKLSAPLAGMGNAKADSRGRSRTKMVSQSQPGSRSGSPGRVLTTTALSTVSSGVQRVLVNSASAQKRSKIPRSQGCSREASPSRLSVARSSRIPRPSVSQGCSREASRESSRDTSPVRSFQPLASRHHSRSTGALYAPEVYGASGPGYGISQSSRLSSSVSAMRVLNTGSDVEEAVADALKKPARRRYESYGMHSDDDANSDASSACSERSYSSRNGSIPTYMRQTEDVAEVLNRCASSNWSERKEGLLGLQNLLKNQRTLSRVELKRLCEIFTRMFADPHGKRVFSMFLETLVDFIQVHKDDLQDWLFVLLTQLLKKMGADLLGSVQAKVQKALDVTRESFPNDLQFNILMRFTVDQTQTPSLKVKVAILKYIETLAKQMDPGDFINSSETRLAVSRVITWTTEPKSSDVRKAAQSVLISLFELNTPEFTMLLGALPKTFQDGATKLLHNHLRNTGNGTQSSMGSPLTRPTPRSPANWSSPLTSPTNTSQNTLSPSAFDYDTENMNSEDIYSSLRGVTEAIQNFSFRSQEDMNEPLKRDSKKDDGDSMCGGPGMSDPRAGGDATDSSQTALDNKASLLHSMPTHSSPRSRDYNPYNYSDSISPFNKSALKEAMFDDDADQFPDDLSLDHSDLVAELLKELSNHNERVEERKIALYELMKLTQEESFSVWDEHFKTILLLLLETLGDKEPTIRALALKVLREILRHQPARFKNYAELTVMKTLEAHKDPHKEVVRSAEEAASVLATSISPEQCIKVLCPIIQTADYPINLAAIKMQTKVIERVSKETLNLLLPEIMPGLIQGYDNSESSVRKACVFCLVAVHAVIGDELKPHLSQLTGSKMKLLNLYIKRAQTGSGGADPTTDVSGQS
# B2: MYPN (protein, UniProt Q86TC9 1-1320, looked up)
# Myopalladin: MQDDSIEASTSISQLLRESYLAETRHRGNNERSRAEPSSNPCHFGSPSGAAEGGGGQDDLPDLSAFLSQEELDESVNLARLAINYDPLEKADETQARKRLSPDQMKHSPNLSFEPNFCQDNPRSPTSSKESPQEAKRPQYCSETQSKKVFLNKAADFIEELSSLFKSHSSKRIRPRACKNHKSKLESQNKVMQENSSSFSDLSERRERSSVPIPIPADTRDNEVNHALEQQEAKRREAEQAASEAAGGDTTPGSSPSSLYYEEPLGQPPRFTQKLRSREVPEGTRVQLDCIVVGIPPPQVRWYCEGKELENSPDIHIVQAGNLHSLTIAEAFEEDTGRYSCFASNIYGTDSTSAEIYIEGVSSSDSEGDPNKEEMNRIQKPNEVSSPPTTSAVIPPAVPQAQHLVAQPRVATIQQCQSPTNYLQGLDGKPIIAAPVFTKMLQNLSASEGQLVVFECRVKGAPSPKVEWYREGTLIEDSPDFRILQKKPRSMAEPEEICTLVIAEVFAEDSGCFTCTASNKYGTVSSIAQLHVRGNEDLSNNGSLHSANSTTNLAAIEPQPSPPHSEPPSVEQPPKPKLEGVLVNHNEPRSSSRIGLRVHFNLPEDDKGSEASSEAGVVTTRQTRPDSFQERFNGQATKTPEPSSPVKEPPPVLAKPKLDSTQLQQLHNQVLLEQHQLQNPPPSSPKEFPFSMTVLNSNAPPAVTTSSKQVKAPSSQTFSLARPKYFFPSTNTTAATVAPSSSPVFTLSSTPQTIQRTVSKESLLVSHPSVQTKSPGGLSIQNEPLPPGPTEPTPPPFTFSIPSGNQFQPRCVSPIPVSPTSRIQNPVAFLSSVLPSLPAIPPTNAMGLPRSAPSMPSQGLAKKNTKSPQPVNDDNIRETKNAVIRDLGKKITFSDVRPNQQEYKISSFEQRLMNEIEFRLERTPVDESDDEIQHDEIPTGKCIAPIFDKRLKHFRVTEGSPVTFTCKIVGIPVPKVYWFKDGKQISKRNEHCKMRREGDGTCSLHIESTTSDDDGNYTIMAANPQGRISCSGHLMVQSLPIRSRLTSAGQSHRGRSRVQERDKEPLQERFFRPHFLQAPGDMVAHEGRLCRLDCKVSGLPPPELTWLLNGQPVLPDASHKMLVRETGVHSLLIDPLTQRDAGTYKCIATNKTGQNSFSLELSVVAKEVKKAPVILEKLQNCGVPEGHPVRLECRVIGMPPPVFYWKKDNETIPCTRERISMHQDTTGYACLLIQPAKKSDAGWYTLSAKNEAGIVSCTARLDIYAQWHHQIPPPMSVRPSGSRYGSLTSKGLDIFSAFSSMESTMVYSCSSRSVVESDEL
# B3: HIRIP3 (protein, UniProt Q9BW71 1-556, looked up)
# HIRA-interacting protein 3: MAREKEMQEFTRSFFRGRPDLSTLTHSIVRRRYLAHSGRSHLEPEEKQALKRLVEEELLKMQVDEAASREDKLDLTKKGKRPPTPCSDPERKRFRFNSESESGSEASSPDYFGPPAKNGVAAEVSPAKEENPRRASKAVEESSDEERQRDLPAQRGEESSEEEEKGYKGKTRKKPVVKKQAPGKASVSRKQAREESEESEAEPVQRTAKKVEGNKGTKSLKESEQESEEEILAQKKEQREEEVEEEEKEEDEEKGDWKPRTRSNGRRKSAREERSCKQKSQAKRLLGDSDSEEEQKEAASSGDDSGRDREPPVQRKSEDRTQLKGGKRLSGSSEDEEDSGKGEPTAKGSRKMARLGSTSGEESDLEREVSDSEAGGGPQGERKNRSSKKSSRKGRTRSSSSSSDGSPEAKGGKAGSGRRGEDHPAVMRLKRYIRACGAHRNYKKLLGSCCSHKERLSILRAELEALGMKGTPSLGKCRALKEQREEAAEVASLDVANIISGSGRPRRRTAWNPLGEAAPPGELYRRTLDSDEERPRPAPPDWSHMRGIISSDGESN
# B4: SAFB (protein, UniProt Q15424 2-915, looked up)
# Scaffold attachment factor B1: AETLSGLGDSGAAGAAALSSASSETGTRRLSDLRVIDLRAELRKRNVDSSGNKSVLMERLKKAIEDEGGNPDEIEITSEGNKKTSKRSSKGRKPEEEGVEDNGLEENSGDGQEDVETSLENLQDIDIMDISVLDEAEIDNGSVADCVEDDDADNLQESLSDSRELVEGEMKELPEQLQEHAIEDKETINNLDTSSSDFTILQEIEEPSLEPENEKILDILGETCKSEPVKEESSELEQPFAQDTSSVGPDRKLAEEEDLFDSAHPEEGDLDLASESTAHAQSSKADSLLAVVKREPAEQPGDGERTDCEPVGLEPAVEQSSAASELAEASSEELAEAPTEAPSPEARDSKEDGRKFDFDACNEVPPAPKESSTSEGADQKMSSPEDDSDTKRLSKEEKGRSSCGRNFWVSGLSSTTRATDLKNLFSKYGKVVGAKVVTNARSPGARCYGFVTMSTAEEATKCINHLHKTELHGKMISVEKAKNEPVGKKTSDKRDSDGKKEKSSNSDRSTNLKRDDKCDRKDDAKKGDDGSGEKSKDQDDQKPGPSERSRATKSGSRGTERTVVMDKSKGVPVISVKTSGSKERASKSQDRKSASREKRSVVSFDKVKEPRKSRDSESHSRVRERSEREQRMQAQWEREERERLEIARERLAFQRQRLERERMERERLERERMHVEHERRREQERIHREREELRRQQELRYEQERRPAVRRPYDLDRRDDAYWPEAKRAALDERYHSDFNRQDRFHDFDHRDRGRYPDHSVDRREGSRSMMGEREGQHYPERHGGPERHGRDSRDGWGGYGSDKRMSEGRGLPPPPRRDWGDHGRREDDRSWQGTADGGMMDRDHKRWQGGERSMSGHSGPGHMMNRGGMSGRGSFAPGGASRGHPIPHGGMQGGFGGQSRGSRPSDARFTRRY
# B5: SIPA1 (protein, UniProt Q96FS4 1-1042, looked up)
# Signal-induced …: MPMWAGGVGSPRRGMAPASTDDLFARKLRQPARPPLTPHTFEPRPVRGPLLRSGSDAGEARPPTPASPRARAHSHEEASRPAATSTRLFTDPLALLGLPAEEPEPAFPPVLEPRWFAHYDVQSLLFDWAPRSQGMGSHSEASSGTLASAEDQAASSDLLHGAPGFVCELGGEGELGLGGPASPPVPPALPNAAVSILEEPQNRTSAYSLEHADLGAGYYRKYFYGKEHQNFFGMDESLGPVAVSLRREEKEGSGGGTLHSYRVIVRTTQLRTLRGTISEDALPPGPPRGLSPRKLLEHVAPQLSPSCLRLGSASPKVPRTLLTLDEQVLSFQRKVGILYCRAGQGSEEEMYNNQEAGPAFMQFLTLLGDVVRLKGFESYRAQLDTKTDSTGTHSLYTTYQDHEIMFHVSTMLPYTPNNQQQLLRKRHIGNDIVTIVFQEPGSKPFCPTTIRSHFQHVFLVVRAHTPCTPHTTYRVAVSRTQDTPAFGPALPAGGGPFAANADFRAFLLAKALNGEQAAGHARQFHAMATRTRQQYLQDLATNEVTTTSLDSASRFGLPSLGGRRRAAPRGPGAELQAAGSLVWGVRAAPGARVAAGAQASGPEGIEVPCLLGISAEALVLVAPRDGRVVFNCACRDVLAWTFSEQQLDLYHGRGEAITLRFDGSPGQAVGEVVARLQLVSRGCETRELALPRDGQGRLGFEVDAEGFVTHVERFTFAETAGLRPGARLLRVCGQTLPSLRPEAAAQLLRSAPKVCVTVLPPDESGRPRRSFSELYTLSLQEPSRRGAPDPVQDEVQGVTLLPTTKQLLHLCLQDGGSPPGPGDLAEERTEFLHSQNSLSPRSSLSDEAPVLPNTTPDLLLATTAKPSVPSADSETPLTQDRPGSPSGSEDKGNPAPELRASFLPRTLSLRNSISRIMSEAGSGTLEDEWQAISEIASTCNTILESLSREGQPIPESGDPKGTPKSDAEPEPGNLSEKVSHLESMLRKLQEDLQKEKADRAALEEEVRSLRHNNRRLQAESESAATRLLLASKQLGSPTADLA
# What was measured:
# GFP-14-3-3β = GFP-14-3-3β co-IP with LC-MS/MS, untreated GFP-14-3-3β versus GFP control (14-3-3 interactome); type: binding, human; details: 3 replicates each
# [1] = tested on: GFP-14-3-3β and its binding proteins; experiment: GFP-14-3-3β co-IP with LC-MS/MS label-free quantification, untreated versus PP1c-treated; parameters: species or system human; details: pairwise comparison PP1 vs untreated, 3 replicates each
# [2] = pairwise comparison untreated GFP-14-3-3β vs GFP, student's t-test, LC-MS/MS label-free quantification
# [3] = student's t-test, LC-MS/MS label-free quantification
Molecule,"Difference (log2), untreated vs GFP (GFP-14-3-3β; [2])","Difference (log2), PP1 vs untreated [1, 3]","Difference (log2), untreated vs GFP (GFP-14-3-3β; log2 difference, pairwise comparison untreated vs GFP, label-free quantification)","Difference (log2), PP1 vs untreated ([1]; log2 difference, label-free quantification)"
B1,2.306 log2,-2.4301 log2,–,–
B2,–,–,-0.08833,1.556
B3,0.3778 log2,-2.4581 log2,–,–
B4,3.699 log2,-2.475 log2,–,–
B5,4.698 log2,-2.506 log2,–,–
